The subject of this data set is MS2 coat protein. The data set can be described thus: apparent KD of MS2 coat protein; designed switch direction (-1 OFF switch, 1 ON switch): -1; higher = weaker reporter binding. In outline: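 An oligonucleotide input, 200 uM small-molecule ligand, or no input was present during titration of SNAP-549-labelled MS2 coat protein, which was doubled from 0.7 or 1.5 nM to 3 µM. Designed RNA switches had been transcribed on Illumina chips by stalled E. coli RNA polymerase. Apparent KD per design is the median over clusters of curves fitted to normalised cluster fluorescence.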

[1] abbreviates: input ligand: microRNA oligo, concentration not stated.
Setting [2] is: Eterna round: R95, input ligand: FMN 200 uM.
Where [3] appears, read: Eterna round: R95, input ligand: microRNA oligo, concentration not stated.
[4] abbreviates: Eterna round: R95, input ligand: none.

Turning to “AGAUUAAUAGUAAGGAUAUGAUGCAGGAAACUGCGUCAGAAGGUACAUGAGGAUCACCCAUGUUAAACUAAUUU [Explosion 7 - Jieux - Brourd's mod of Exclusion 4] (Eterna round: R97, puzzle: Brourd's mod of Exclusion 4)”, the “apparent KD of MS2 coat protein” value is, setting by setting: (input ligand: FMN 200 uM) 17.4 nM; (input ligand: none) 15 nM.

With “AGAUUGUUAGGAUAUUCGGACCGCUACGAAGCGUGGUCCAGGGAGAAGGAACAUGAGGAUCACCCAUGUGACCA [Eternabot (L2) Solution 33] (Eterna round: R97, puzzle: Exclusion 4)”, the “apparent KD of MS2 coat protein” value reads like this: (input ligand: FMN 200 uM) 69.7 nM; (input ligand: none) 26 nM.

For the sequence “AGCAAGUUAGGAUAUCUUAAAGUUAGGUGAUGUCCUGUUUGAGAGAAGGAACAUGAGGAUCACCCAUGUGGUCA [Eternabot (L2) Solution 56] (Eterna round: R97, puzzle: Exclusion 4)”, the “apparent KD of MS2 coat protein” value (input ligand: FMN 200 uM) was 58.3 nM and the “apparent KD of MS2 coat protein” value (input ligand: none) turned out to be 62.6 nM.

Consider “AGCCACAGAGGAUAUACAUACAUCCAGUAGUAGAGUCUACUACAUGAGGAUCACCCAUGUAGAAGGCUGUGGCA [Omei Ex2 BD B16] (Eterna round: R97, puzzle: Exclusion 2)”, for which the “apparent KD of MS2 coat protein” value reads like this: (input ligand: FMN 200 uM) 419 nM; (input ligand: none) 37.1 nM.

As to “AGCCCUGCAGGAUAUGCCCGGGAUAACAUGAGGAUCACCCAUGUGACCGAUUGUUAAUCUGCAGAAGGGCAUGGGA [JL-EX5-4.18 ViennaUCT mod] (Eterna round: R97, puzzle: Exclusion 5)”, the “apparent KD of MS2 coat protein” value is 313 nM (input ligand: FMN 200 uM) and 563 nM (input ligand: none).

With “AGCCGUCUAGGAUAUACAUAAGAUCGGCAGUCUCCGUCGAGACAUGAGGAUCACCCAUGUAGAAGGAGGCGGGA [EX2 A.22] (Eterna round: R97, puzzle: Exclusion 2)”, the “apparent KD of MS2 coat protein” value was 208 nM (input ligand: FMN 200 uM) and 47.2 nM (input ligand: none).

As for “AGCCUAGCAGGAUAUGCCCGGGAUAACAUGAGGAUCACCCAUGUGACCGAUUGAUGUCCUGCAGAAGGGCUAGGGA [JL-EX5-4.00 ViennaUCT mod] (Eterna round: R97, puzzle: Exclusion 5)”, the “apparent KD of MS2 coat protein” value runs as follows: (input ligand: FMN 200 uM) 20.9 nM; (input ligand: none) 18.5 nM.

In the case of “AGCCUAGCAGGAUAUGCCCGGGAUAACAUGAGGAUCACCCAUGUGACUGAUUGAUAUCUUGCAGAAGGGCUAGGGA [JL-EX5-4.06 ViennaUCT mod] (Eterna round: R97, puzzle: Exclusion 5)”, the “apparent KD of MS2 coat protein” value (input ligand: FMN 200 uM) turned out to be 187 nM and the “apparent KD of MS2 coat protein” value (input ligand: none) stood at 25.5 nM.

In the case of “AGCGAAUAAGCAGGAUAUGAGAAUAGAUAGAGCUCAGAAGGGCUACAUGAGGAUCACCCAUGUAAAGUCUUGAGGCUGCGUGGU [Prohibition 13 - Jieux - Exclusion NG 1] (Eterna round: R96, puzzle: Exclusion NG 1)”, the “apparent KD of MS2 coat protein” value (input ligand: FMN 200 uM) came out at 22.5 nM, the “apparent KD of MS2 coat protein” value under setting [1] was found to be 14.4 nM and the “apparent KD of MS2 coat protein” value (input ligand: none) was 18.4 nM.

Regarding “AGCGAGGCAGGAUAUACAUGAGGAUCACCCAUGUACUUGUAUGGCGUGGAACAUCGUGGUAGAAGGGCCGUGCU [EX3 #81] (Eterna round: R97, puzzle: Exclusion 3)”, the “apparent KD of MS2 coat protein” value reads like this: (input ligand: FMN 200 uM) 101 nM; (input ligand: none) 355 nM.

For the sequence “AGCGCCAUCGUGAGAUGGCGUAUUACAUGAGGAUCACCCAUGUAGGAUAUCGAUUGCUUUGCAGUCGAGAAGGGCAUGUACCAG [JL ENG3 3.80 Mod K] (Eterna round: R96, puzzle: Exclusion NG 3)”, the “apparent KD of MS2 coat protein” value (input ligand: FMN 200 uM) turned out to be 54.7 nM, the “apparent KD of MS2 coat protein” value under setting [1] turned out to be 32.8 nM and the “apparent KD of MS2 coat protein” value (input ligand: none) was determined as 46 nM.

For “AGCUAAAUAGGAUAUGCCCGGGAUAACAUGAGGAUCACCCAUGUGACCGAUUCAUGUCCUGCAGAAGGGUUUGGGA [Mod of ViennaUCT 6 - Jieux - Exclusion 5] (Eterna round: R97, puzzle: Exclusion 5)”, the “apparent KD of MS2 coat protein” value was found to be 14.3 nM (input ligand: FMN 200 uM) and 13.5 nM (input ligand: none).

Take “AGCUAGAUAGGAUAUGCCCGAGAUAACAUGAGGAUCACCCAUGUGACCGAAUCUAAUCUAGCAGAAGGGUUUAGGA [Mod of ViennaUCT 16 - Jieux - Exclusion 5] (Eterna round: R97, puzzle: Exclusion 5)”: the “apparent KD of MS2 coat protein” value by setting is: (input ligand: FMN 200 uM) 15.4 nM; (input ligand: none) 15.1 nM.

Regarding “AGCUAGUCAGGAUAUUCUAUUAAUUACAUGAGGAUCACCCAUGUGAAUGGGCAAGGGUGUGAAGAAGGGACUAGCG [Omei Ex5 A16] (Eterna round: R97, puzzle: Exclusion 5)”, the “apparent KD of MS2 coat protein” value (input ligand: FMN 200 uM) worked out at 305 nM and the “apparent KD of MS2 coat protein” value (input ligand: none) was determined as 1030 nM.

“AGCUAGUCAGGAUAUUCUGUUAAUUACAUGAGGAUCACCCAUGUGAAUGGACAAGGGUGUGAAGAAGGGACUAGCG [Omei Ex5 A15] (Eterna round: R97, puzzle: Exclusion 5)”: the “apparent KD of MS2 coat protein” value (input ligand: FMN 200 uM) stood at 124 nM and the “apparent KD of MS2 coat protein” value (input ligand: none) was determined as 248 nM.

As to “AGCUAGUGCCGAGGAUAUACAUGAGGAUCACCCAUGUAGCCGUGAGGCUUUGUCUCACGGGAUAUGUAGAAGGCGGCGUUGGCA [JL ENG2 1.53] (Eterna round: R96, puzzle: Exclusion NG 2)”, the “apparent KD of MS2 coat protein” value stood at 34.1 nM (input ligand: FMN 200 uM), 11.8 nM under setting [1] and 18.3 nM (input ligand: none).

Regarding “AGCUGUGGCCGAGGAUAUCACAUGAGGAUCACCCAUGUAUAUGAUUAGGCCUGGUAACAGGCUCGUGAGAAGGCGGUCUCAGCA [Eli eng2 - 012] (Eterna round: R96, puzzle: Exclusion NG 2)”, the “apparent KD of MS2 coat protein” value runs as follows: (input ligand: FMN 200 uM) 28.4 nM; under setting [1], 19.5 nM; (input ligand: none) 31.3 nM.

For the sequence “AGCUGUGGCCGAGGAUAUCACGAACCAUGGAAAACCAUGGAACUCAAACAUGAGGAUCACCCAUGUGAGAAGGCGGUCUCAGCA [Eli eng2 - 018] (Eterna round: R96, puzzle: Exclusion NG 2)”, under setting [1], the “apparent KD of MS2 coat protein” value came out at 15.2 nM.

“AGCUGUGGCCGAGGAUAUCUAAUAGUCCCAACCGAAAUAUAAUCGGACAUGAGGAUCACCCAUGUAGAGAAGGCGGUCUCAGCA [Eli eng2 - 069] (Eterna round: R96, puzzle: Exclusion NG 2)”: the “apparent KD of MS2 coat protein” value amounted to 286 nM (input ligand: FMN 200 uM), 102 nM under setting [1] and 113 nM (input ligand: none).

Turning to “AGCUGUGGCCGAGGAUAUCUGACUUCAAUAACCGAAAUAUAAUCGGACAUGAGGAUCACCCAUGUAGAGAAGGCGGUCUCAGCA [Eli eng2 - 083] (Eterna round: R96, puzzle: Exclusion NG 2)”, under setting [1], the “apparent KD of MS2 coat protein” value is 12.5 nM.

“AGCUGUGGCCGAGGAUAUCUGUCUCAUAAAACCGAAAUAUAAUCGGACAUGAGGAUCACCCAUGUAGAGAAGGCGGUCUCAGCA [Eli eng2 - 096] (Eterna round: R96, puzzle: Exclusion NG 2)”: the “apparent KD of MS2 coat protein” value under setting [1] came out at 15.8 nM.

Consider “AGCUGUGGCCGAGGAUAUGACAUGAGGAUCACCCAUGUACCAGAUUAGGCCUGGUAACAGGCUCAUCAGAAGGCGGUCUCAGCA [Eli eng2 - 016] (Eterna round: R96, puzzle: Exclusion NG 2)”, for which the “apparent KD of MS2 coat protein” value is, setting by setting: (input ligand: FMN 200 uM) 13.5 nM; under setting [1], 10.7 nM; (input ligand: none) 14.8 nM.

With “AGCUUUGCUGCUCGUCCCAACAUGAGGAUCACCCAUGUUCUUAUGAAACCAUCUAGCCUAGAUGGGUCUUGCCAAAG [Eternabot (Original) Solution 47] (Eterna round: R97, puzzle: Sensor, turn-off variant 1)”, the “apparent KD of MS2 coat protein” value (input ligand: FMN 200 uM) was determined as 27.1 nM and the “apparent KD of MS2 coat protein” value (input ligand: none) was 29.1 nM.

Consider “AGCUUUUUGCUCGUCUUAUACAUGAGGAUCACCCAUGUAUUGGACCACAUCGAUAGAUGUGGGCCAAGAAGCAUGGG [Omdei Mir OFFv1 C2] (Eterna round: R97, puzzle: Sensor, turn-off variant 1)”, for which the “apparent KD of MS2 coat protein” value (input ligand: FMN 200 uM) was 133 nM and the “apparent KD of MS2 coat protein” value (input ligand: none) stood at 176 nM.

Regarding “AGGAAACAUGAGGAUCACCCAUGUGAGGAUAUGAAAAAGAAAAGAAAAGAAAGAAGAAUCAGAAGGCACAAAGG [Mat - Mod of Hog D1] (puzzle: Exclusion 1)”, the “apparent KD of MS2 coat protein” value worked out at 52.9 nM under setting [2], 32 nM under setting [3] and 45.9 nM under setting [4].

For the sequence “AGGAAGCAAGGAUAUACGAGGAGAAGGUGGAGAGUUAAAGGACAUGAGGAUCACCCAUGUAGAAGGUGCGAGAA [JR_Exclu2_Sub045] (puzzle: Exclusion 2)”, under setting [3], the “apparent KD of MS2 coat protein” value stood at 52.2 nM.

As for “AGGAGCAGAGGGAGAUCCAACAUGAGGAUCACCCAUGUCUCAUAAGCUUUUUGCUCAUCUUAUUGUACCUUGGUGCA [Mat - Sensor v3 - turn-off var 1 - JL Mod - D27] (puzzle: Sensor v3, turn-off variant 1)”, the “apparent KD of MS2 coat protein” value is 29.2 nM under setting [2], 12.5 nM under setting [3] and 22.3 nM under setting [4].

For the sequence “AGGCUGUCAGGAUAUCUGCGCCGCUGUACGCGGCGUUAUAAAGAGAAGGGACAUGAGGAUCACCCAUGUCCUCA [EX4 B.14] (Eterna round: R97, puzzle: Exclusion 4)”, the “apparent KD of MS2 coat protein” value is, setting by setting: (input ligand: FMN 200 uM) 109 nM; (input ligand: none) 19.5 nM.

As for “AGGGAGUGAGGAUAUACGAAAUAAAAAGAAGGAAAAAAAGAGUAGAAGGCACAUGAGGAUCACCCAUGUGAGAA [milkweed 12] (Eterna round: R96, puzzle: Exclusion 4)”, under setting [1], the “apparent KD of MS2 coat protein” value is 16.9 nM.

In the case of “AGGGAUAAAGGAUAUACAUGAGGAUCACCCAUGUUGAGGAAGGUUAGAUGAGGAGUAAGUAGAAGGUUAGACGA [JR_Exclu3_Sub088] (puzzle: Exclusion 3)”, the “apparent KD of MS2 coat protein” value is 45.7 nM under setting [2], 40.7 nM under setting [3] and 61.3 nM under setting [4].

Values taken from the supplement of paper PMC9170038.
